Experimental data as given in patent US20140037621A1 (JN BIOSCIENCES, published 2014).

T1: CD30 on the surface of Karpas 299 cells (human, UniProt P28908 19-595)
T1 sequence (looked up): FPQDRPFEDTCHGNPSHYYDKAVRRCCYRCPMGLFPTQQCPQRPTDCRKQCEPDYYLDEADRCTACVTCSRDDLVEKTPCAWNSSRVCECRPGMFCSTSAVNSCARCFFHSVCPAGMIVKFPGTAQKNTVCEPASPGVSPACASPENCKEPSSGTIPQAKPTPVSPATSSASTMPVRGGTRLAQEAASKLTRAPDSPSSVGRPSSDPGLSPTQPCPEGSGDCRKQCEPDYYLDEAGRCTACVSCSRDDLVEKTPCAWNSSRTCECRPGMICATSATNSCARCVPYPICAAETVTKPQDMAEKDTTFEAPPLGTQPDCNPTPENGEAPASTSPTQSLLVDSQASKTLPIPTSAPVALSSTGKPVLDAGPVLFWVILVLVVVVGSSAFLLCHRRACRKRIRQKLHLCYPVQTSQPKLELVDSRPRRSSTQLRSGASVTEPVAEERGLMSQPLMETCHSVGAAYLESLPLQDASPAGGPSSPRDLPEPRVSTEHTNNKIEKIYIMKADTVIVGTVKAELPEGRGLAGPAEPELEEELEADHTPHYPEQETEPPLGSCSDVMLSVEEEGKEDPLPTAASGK

B1: HuYON007.V279-Fcµtp monomer (antibody, human IgG1, lambda)
heavy: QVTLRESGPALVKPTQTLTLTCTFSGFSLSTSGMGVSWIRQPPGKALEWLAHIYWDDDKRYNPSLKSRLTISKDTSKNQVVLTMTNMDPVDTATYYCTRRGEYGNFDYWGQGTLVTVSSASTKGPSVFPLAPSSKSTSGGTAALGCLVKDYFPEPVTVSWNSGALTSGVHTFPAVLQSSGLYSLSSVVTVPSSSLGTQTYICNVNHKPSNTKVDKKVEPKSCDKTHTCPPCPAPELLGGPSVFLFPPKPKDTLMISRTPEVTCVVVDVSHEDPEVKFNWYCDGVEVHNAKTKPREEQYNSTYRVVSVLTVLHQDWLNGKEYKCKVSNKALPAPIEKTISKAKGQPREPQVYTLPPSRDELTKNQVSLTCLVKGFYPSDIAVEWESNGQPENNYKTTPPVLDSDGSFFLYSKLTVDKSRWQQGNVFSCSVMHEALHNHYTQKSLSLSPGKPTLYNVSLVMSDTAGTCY
light: QTVVTQEPSFSVSPGGTVTLTCRSSSGAVTTSNFANWVQQTPGQAPRGLIGGTNNRAPGVPDRFSGSILGNKAALTITGAQADDESDYYCALWYSNHWVFGGGTKLTVLGQPKAAPSVTLFPPSSEELQANKATLVCLISDFYPGAVTVAWKADSSPVKAGVETTTPSKQSNNKYAASSYLSLTPEQWKSHRSYSCQVTHEGSTVEKTVAPTECS
B2: HuYON007.H285-Fcµtp multimer (antibody, human IgG1, lambda)
heavy: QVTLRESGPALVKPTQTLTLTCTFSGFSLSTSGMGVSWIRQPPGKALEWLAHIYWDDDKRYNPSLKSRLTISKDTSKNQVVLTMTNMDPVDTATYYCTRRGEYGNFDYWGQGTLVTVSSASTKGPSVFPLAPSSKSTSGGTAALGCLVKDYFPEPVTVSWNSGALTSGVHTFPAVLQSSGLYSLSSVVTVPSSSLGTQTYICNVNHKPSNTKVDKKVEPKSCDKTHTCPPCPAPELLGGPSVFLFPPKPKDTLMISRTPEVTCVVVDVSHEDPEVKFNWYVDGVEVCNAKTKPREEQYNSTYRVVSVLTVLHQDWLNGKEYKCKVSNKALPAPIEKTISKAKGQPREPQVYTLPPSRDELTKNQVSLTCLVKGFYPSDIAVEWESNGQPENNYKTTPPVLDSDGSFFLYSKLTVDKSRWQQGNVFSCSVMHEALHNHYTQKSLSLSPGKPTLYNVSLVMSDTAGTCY
light: B1 light
B3: HuYON007.L309-Fcµtp multimer (antibody, human IgG1, lambda)
heavy: not shown
light: B1 light
B4: HuYON007.A287-Fcµtp multimer (antibody, human IgG1, lambda)
heavy: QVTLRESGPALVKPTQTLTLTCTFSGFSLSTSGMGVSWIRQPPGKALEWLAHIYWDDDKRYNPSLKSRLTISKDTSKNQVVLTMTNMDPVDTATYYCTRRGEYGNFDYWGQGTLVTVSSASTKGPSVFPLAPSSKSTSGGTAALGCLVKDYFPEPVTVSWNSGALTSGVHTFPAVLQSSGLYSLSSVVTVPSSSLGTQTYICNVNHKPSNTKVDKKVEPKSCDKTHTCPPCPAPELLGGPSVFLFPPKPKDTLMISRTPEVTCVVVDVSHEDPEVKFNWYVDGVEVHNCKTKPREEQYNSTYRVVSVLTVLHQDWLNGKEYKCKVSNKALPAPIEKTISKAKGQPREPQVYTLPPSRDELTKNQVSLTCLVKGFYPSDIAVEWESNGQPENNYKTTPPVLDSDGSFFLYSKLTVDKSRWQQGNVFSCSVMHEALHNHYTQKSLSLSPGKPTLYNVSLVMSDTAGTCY
light: B1 light
B5: HuYON007.L309-Fcµtp monomer (antibody, human IgG1, lambda)
heavy: not shown
light: B1 light
B6: HuYON007.H285-Fcµtp monomer (antibody, human IgG1, lambda)
heavy: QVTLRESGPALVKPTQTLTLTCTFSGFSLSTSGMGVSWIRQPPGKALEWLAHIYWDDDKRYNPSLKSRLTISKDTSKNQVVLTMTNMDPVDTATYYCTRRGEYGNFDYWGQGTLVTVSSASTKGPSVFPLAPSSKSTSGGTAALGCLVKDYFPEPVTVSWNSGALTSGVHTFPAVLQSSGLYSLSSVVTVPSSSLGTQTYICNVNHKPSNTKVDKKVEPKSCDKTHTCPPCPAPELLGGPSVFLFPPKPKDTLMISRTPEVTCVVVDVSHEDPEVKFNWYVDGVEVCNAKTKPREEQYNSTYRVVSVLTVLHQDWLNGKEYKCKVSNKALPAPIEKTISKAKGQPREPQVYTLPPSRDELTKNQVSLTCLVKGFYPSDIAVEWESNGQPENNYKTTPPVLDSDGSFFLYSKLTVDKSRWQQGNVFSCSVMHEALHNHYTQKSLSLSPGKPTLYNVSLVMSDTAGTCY
light: B1 light
B7: HuYON007.A287-Fcµtp monomer (antibody, human IgG1, lambda)
heavy: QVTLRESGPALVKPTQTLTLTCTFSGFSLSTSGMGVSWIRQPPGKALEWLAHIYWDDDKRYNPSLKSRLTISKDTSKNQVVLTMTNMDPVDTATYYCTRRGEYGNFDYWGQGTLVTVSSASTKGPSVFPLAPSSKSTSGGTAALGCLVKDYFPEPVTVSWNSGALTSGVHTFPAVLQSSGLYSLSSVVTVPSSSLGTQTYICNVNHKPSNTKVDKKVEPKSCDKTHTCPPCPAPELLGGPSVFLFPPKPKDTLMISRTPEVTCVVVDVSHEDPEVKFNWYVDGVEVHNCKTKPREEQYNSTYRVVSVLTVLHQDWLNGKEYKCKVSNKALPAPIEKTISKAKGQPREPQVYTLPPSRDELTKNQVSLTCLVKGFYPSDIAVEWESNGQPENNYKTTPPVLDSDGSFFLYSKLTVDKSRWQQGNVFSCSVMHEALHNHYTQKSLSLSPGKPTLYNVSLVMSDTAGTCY
light: B1 light
B8: HuYON007.V279-Fcµtp multimer (antibody, human IgG1, lambda)
heavy: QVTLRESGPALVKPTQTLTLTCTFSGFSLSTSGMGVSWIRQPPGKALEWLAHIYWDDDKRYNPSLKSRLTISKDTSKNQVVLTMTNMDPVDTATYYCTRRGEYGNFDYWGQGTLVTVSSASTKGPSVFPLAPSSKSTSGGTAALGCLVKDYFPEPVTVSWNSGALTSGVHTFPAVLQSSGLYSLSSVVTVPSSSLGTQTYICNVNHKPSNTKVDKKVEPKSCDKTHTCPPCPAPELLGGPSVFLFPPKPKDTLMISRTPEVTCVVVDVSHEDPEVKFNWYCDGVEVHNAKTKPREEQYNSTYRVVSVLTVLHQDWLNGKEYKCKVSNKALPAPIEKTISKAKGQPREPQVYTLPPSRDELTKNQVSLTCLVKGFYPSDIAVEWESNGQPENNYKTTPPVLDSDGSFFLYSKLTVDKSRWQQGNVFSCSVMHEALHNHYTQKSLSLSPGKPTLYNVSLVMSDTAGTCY
light: B1 light
B9: ChSan11 IgG1/kappa antibody (mouse-human chimeric anti-human CD30) (antibody)
heavy: not shown
VL: DIVLTQSPASLAVSLGQRATISCRASESVEYYGTGLMQWYQQKPGQPPKLLIYSASNVESGVPARFTGSGSGTDFSLNIHPVEEDDIAMYFCQQSRKVPWTFGGGTKLEIKR
B10: ChSan11.V279-Fcµtp multimer (antibody, human IgG1)
heavy: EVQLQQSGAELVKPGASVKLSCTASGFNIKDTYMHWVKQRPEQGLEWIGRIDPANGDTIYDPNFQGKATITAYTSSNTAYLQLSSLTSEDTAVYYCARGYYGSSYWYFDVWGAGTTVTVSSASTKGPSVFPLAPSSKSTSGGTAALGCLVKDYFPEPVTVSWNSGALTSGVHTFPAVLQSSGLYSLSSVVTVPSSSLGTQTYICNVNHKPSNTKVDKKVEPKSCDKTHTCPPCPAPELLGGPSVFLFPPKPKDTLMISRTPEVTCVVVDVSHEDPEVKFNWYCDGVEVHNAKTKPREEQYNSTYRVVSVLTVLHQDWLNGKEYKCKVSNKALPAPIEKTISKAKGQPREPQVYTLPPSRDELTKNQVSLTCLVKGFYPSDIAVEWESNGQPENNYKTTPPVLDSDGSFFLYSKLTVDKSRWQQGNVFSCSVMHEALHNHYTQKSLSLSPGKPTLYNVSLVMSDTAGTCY
VL: B9 VL
B11: ChSan11.L309-Fcµtp multimer (antibody, human IgG1)
heavy: not shown
VL: B9 VL
B12: ChSan11.A287-Fcµtp multimer (antibody, human IgG1)
heavy: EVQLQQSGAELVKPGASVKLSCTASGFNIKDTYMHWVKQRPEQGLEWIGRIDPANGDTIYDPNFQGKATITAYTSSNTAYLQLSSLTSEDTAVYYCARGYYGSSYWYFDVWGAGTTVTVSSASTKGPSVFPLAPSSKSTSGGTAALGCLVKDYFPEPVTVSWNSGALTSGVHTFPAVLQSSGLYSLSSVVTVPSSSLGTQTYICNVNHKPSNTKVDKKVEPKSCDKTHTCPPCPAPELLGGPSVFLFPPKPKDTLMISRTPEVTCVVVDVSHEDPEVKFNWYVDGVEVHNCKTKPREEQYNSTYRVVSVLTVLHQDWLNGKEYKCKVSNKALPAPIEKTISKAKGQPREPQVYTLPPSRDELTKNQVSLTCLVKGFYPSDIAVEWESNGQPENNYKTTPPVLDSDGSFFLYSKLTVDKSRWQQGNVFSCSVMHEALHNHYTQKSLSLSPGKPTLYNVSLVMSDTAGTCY
VL: B9 VL
B13: ChSan11.H285-Fcµtp multimer (antibody, human IgG1)
heavy: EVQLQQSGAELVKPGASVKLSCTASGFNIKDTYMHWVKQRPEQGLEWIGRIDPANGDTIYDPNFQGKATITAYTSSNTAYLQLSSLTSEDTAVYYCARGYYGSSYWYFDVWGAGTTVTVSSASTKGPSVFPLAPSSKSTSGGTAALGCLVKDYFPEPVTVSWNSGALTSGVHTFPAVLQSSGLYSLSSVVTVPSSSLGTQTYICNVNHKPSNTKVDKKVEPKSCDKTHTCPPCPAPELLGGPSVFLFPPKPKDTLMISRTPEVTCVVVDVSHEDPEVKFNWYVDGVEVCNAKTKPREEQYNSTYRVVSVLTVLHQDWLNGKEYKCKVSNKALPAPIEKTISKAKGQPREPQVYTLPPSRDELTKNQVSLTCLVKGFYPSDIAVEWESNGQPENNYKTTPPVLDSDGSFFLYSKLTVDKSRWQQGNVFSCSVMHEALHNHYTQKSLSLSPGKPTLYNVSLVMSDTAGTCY
VL: B9 VL

The binders below were run against death receptor 4 (DR4) on the cell surface (Ramos, Colo-205, RPMI 8226 cells) (human, UniProt O00220 24-468) (assay: cell-based or functional assay).
For B1, the “cell viability of Ramos cells at 100 ng/ml of antibody (alamarBlue)” value (from here on “cell viability of Ramos cells”) was 80%.
In the case of B2, the “cell killing of Ramos cells at 100 ng/ml of antibody (alamarBlue)” value (shortened to “cell killing of Ramos cells”) is reported as ~100% and the “viability of Colo-205 cells at 100 ng/ml of antibody (alamarBlue)” value (from here on “viability of Colo-205 cells”) is reported as < 35%.
In the case of B3, the “cell killing of Ramos cells” value is reported as ~100% and the “viability of Colo-205 cells” value is reported as < 35%.
For B4, the “cell killing of Ramos cells” value was ~100% and the “viability of Colo-205 cells” value was < 35%.
With B5 the “cell viability of Ramos cells” value was 92%.
For B6, the “cell viability of Ramos cells” value was 91%.
B7 was tested, and the “cell viability of Ramos cells” value was 83%.
With B8 the “cell killing of Ramos cells” value was ~100% and the “viability of Colo-205 cells” value was < 35%.

These binders were tested against T1, CD30 on the surface of Karpas 299 cells (assay: cell-based or functional assay).
With B9 the “growth level of Karpas 299 cells (percent cell growth, WST-8, 2 µg/ml antibody, 5 days)” value was 106%.
For B10, the “growth level of Karpas 299 cells (percent cell growth, WST-8, 2 µg/ml antibody, 5 days)” value was 41%.
For B11, the “growth level of Karpas 299 cells (percent cell growth, WST-8, 2 µg/ml antibody, 5 days)” value was 38%.
For B12, the “growth level of Karpas 299 cells (percent cell growth, WST-8, 2 µg/ml antibody, 5 days)” value was 43%.
In the case of B13, the “growth level of Karpas 299 cells (percent cell growth, WST-8, 2 µg/ml antibody, 5 days)” value is reported as 39%.
